Experimental data: US20080050361A1, “STAP[…] […] ANTI-INFECTIVES” (priority 2004, published 2008)

Experiment: Heme binding by native and mutant forms of GST-IsdA (electronic spectra, A407/A280)
Conditions: GST-IsdA fusion proteins as expressed and isolated from E. coli; heme scavenged from E. coli cytoplasm; room temperature
Experimental: Wild type and point mutant proteins were purified as expressed from E. coli and relative heme binding was assessed based upon the ability of the proteins, all expressed in an equivalent fashion, to scavenge and retain association with heme derived from the cytoplasm of E. coli Proteins were adjusted to an equivalent concentration and electronic spectra were recorded using a Cary 500 spectrophotometer (Varian Inc.) with a 1 cm path length and 1 mL quartz cuvettes. All recordings were taken at room temperature.

B1: IsdA: full length (excluding signal peptide and C-terminal sorting sequences) IsdA, amino acids 48-316, GST fusion expressed in E. coli (protein, listed as Staphylococcus aureus)
chain: TEATNATNNQSTQVSQATSQPINFQVQKDGSSEKSHMDDYMQHPGKVIKQNNKYYFQTVLNNASFWKEYKFYNANNQELATTVVNDNKKADTRTINVAVEPGYKSLTTKVHIVVPQINYNHRYTTHLEFEKAIPTLADAAKPNNVKPVQPKPAQPKTPTEQTKPVQPKVEKVKPTVTTTSKVEDNHSTKVVSTDTTKDQTKTQTAHTVKTAQTAQEQNKVQTPVKDVATAKSESNNQAVSDNKSQQTNKVTKHNETPKQASKAKELPKT
modifications: GST fusion
- A407/A280 ratio: 0.629
